Among the targets are slbo (Drosophila melanogaster, UniProt Q02637 1-449); Sox21a (Drosophila melanogaster, UniProt Q9VUD1 1-388); Gsc (Drosophila melanogaster, UniProt P54366 1-415); gooseberry-neuro (gsb-n) (Drosophila melanogaster, UniProt P09083 1-449); gooseberry (gsb) (Drosophila melanogaster, UniProt P09082 1-427).
What all share (test): MITOMI saturation binding
Another series addresses T1, z (Drosophila melanogaster, UniProt P09956 1-575).
T1 sequence: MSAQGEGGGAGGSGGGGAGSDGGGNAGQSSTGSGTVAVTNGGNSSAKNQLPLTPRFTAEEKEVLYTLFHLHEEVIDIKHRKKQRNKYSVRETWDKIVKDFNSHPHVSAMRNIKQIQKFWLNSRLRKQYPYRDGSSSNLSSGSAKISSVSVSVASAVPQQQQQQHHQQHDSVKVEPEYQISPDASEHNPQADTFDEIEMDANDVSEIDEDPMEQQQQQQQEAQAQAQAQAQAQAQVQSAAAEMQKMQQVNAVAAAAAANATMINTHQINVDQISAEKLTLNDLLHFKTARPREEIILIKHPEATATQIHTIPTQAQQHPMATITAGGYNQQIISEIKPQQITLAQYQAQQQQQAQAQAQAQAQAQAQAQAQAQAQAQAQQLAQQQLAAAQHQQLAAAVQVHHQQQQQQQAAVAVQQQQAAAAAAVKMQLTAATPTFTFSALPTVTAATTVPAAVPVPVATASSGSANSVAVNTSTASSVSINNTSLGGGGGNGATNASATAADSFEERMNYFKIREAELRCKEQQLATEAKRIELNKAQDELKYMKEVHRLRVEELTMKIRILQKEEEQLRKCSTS

Sequence of gooseberry-neuro (gsb-n) (P09083 whole entry): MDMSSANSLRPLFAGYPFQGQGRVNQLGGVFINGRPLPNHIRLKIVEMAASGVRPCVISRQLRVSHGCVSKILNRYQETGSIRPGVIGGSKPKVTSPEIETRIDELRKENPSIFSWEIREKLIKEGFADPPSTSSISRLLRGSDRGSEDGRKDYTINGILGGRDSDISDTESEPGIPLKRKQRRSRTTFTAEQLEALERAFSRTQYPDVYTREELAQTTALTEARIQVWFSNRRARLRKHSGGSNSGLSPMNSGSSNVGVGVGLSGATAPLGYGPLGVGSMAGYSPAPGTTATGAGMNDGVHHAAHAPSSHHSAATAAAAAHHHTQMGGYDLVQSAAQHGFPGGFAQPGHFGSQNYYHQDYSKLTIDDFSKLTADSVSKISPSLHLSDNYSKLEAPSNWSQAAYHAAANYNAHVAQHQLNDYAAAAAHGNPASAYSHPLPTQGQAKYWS
Sequence of Gsc (P54366 whole entry): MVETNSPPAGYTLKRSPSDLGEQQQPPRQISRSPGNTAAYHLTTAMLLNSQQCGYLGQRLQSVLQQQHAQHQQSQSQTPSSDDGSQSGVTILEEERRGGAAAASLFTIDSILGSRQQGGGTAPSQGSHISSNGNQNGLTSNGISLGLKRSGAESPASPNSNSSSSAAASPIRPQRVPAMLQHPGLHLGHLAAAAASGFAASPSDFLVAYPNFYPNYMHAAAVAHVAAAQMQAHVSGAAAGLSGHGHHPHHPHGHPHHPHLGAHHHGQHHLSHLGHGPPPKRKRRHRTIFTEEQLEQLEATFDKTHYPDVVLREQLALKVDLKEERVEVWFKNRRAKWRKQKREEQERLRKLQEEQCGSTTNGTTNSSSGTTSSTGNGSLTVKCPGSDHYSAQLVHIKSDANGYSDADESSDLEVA
Sequence of slbo (Q02637 whole entry): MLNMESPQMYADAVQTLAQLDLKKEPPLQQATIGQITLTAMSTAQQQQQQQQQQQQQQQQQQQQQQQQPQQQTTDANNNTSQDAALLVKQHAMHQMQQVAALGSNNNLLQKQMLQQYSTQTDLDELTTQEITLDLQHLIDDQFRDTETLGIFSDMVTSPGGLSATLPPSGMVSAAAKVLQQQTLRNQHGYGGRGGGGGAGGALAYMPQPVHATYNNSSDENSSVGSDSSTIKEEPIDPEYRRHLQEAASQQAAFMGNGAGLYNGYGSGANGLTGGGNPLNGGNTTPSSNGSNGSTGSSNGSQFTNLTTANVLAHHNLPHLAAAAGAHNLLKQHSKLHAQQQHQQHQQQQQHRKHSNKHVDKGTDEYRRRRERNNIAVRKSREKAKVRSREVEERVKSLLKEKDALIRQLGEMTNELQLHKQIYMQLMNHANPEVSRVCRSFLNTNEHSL
Sequence of gooseberry (gsb) (P09082 whole entry): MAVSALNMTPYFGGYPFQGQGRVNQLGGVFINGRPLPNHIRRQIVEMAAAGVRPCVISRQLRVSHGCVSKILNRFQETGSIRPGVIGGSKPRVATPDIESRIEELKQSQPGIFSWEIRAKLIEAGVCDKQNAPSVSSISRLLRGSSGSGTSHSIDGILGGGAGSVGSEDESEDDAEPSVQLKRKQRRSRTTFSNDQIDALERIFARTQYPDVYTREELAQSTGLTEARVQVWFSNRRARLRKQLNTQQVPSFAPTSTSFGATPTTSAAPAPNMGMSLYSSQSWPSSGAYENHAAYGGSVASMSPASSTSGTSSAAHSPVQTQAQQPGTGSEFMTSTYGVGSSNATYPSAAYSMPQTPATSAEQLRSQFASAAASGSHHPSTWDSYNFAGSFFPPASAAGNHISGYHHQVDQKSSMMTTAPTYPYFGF

B1: gt motif (dsDNA)
DNA 1: CGCATTACGTAATAACTCCGGCGGTATGAC
DNA 2: GTCATACCGCCGGAGTTATTACGTAATGCG
In the case of B1, the binding result in the series with slbo is given as “binds”.

B2: D motif (dsDNA)
DNA 1: CGCGTCCATTGTTCTCTCCGGCGGTATGAC
DNA 2: GTCATACCGCCGGAGAGAACAATGGACGCG
Consider B2, for which the binding result in the series with Sox21a was “binds”.

B3: bcd motif (dsDNA)
DNA 1: CGCGGATTAGCTCCGGCGGTATGAC
DNA 2: GTCATACCGCCGGAGCTAATCCGCG
B3: the binding result in the series with z and with Gsc was “binds” each time.

B4: prd motif (dsDNA)
DNA 1: CGCCCAATTTGTCACGCTCTCCGGCGGTATGAC
DNA 2: GTCATACCGCCGGAGAGCGTGACAAATTGGGCG
On to B4, for which the binding result in the series with gooseberry-neuro (gsb-n), with z and with gooseberry (gsb) was “binds” in each case.

(Values after paper PMC3575842.)
